B4: Fluorescent p190-PH: CFP fused to the N-terminus of the p190 PH domain (domain or fragment)
chain: EKNQKWLEILNKIENKTYTKLKNGHVFRKQALMSEERTLLYDGLVYWKTATGRFKDILALLLTDVLLFLQEKDQKYIFAAVDQKPSVISLQKLIAREVANEERGMFLISASSAGPEMYEIHTNSKEERNNWMRRIQQAVESCPEEK

Assays:
[1] = target: Non-tagged RhoA bound to GTPγS (human, UniProt P61586 1-193); experiment: ITC
[2] = target: Non-tagged Rac1 bound to GTPγS (human, UniProt P63000 1-192); experiment: FRET or BRET
[3] = target: B4; experiment: FRET or BRET
[4] = target: GST-Rac2 (human, UniProt P15153 1-192); experiment: pull-down
[5] = target: GST-RhoB (human, UniProt P62745 1-196); experiment: pull-down
[6] = target: GST-Rac3 (human, UniProt P60763 1-192); experiment: pull-down
[7] = target: GST-RhoC (human, UniProt P08134 1-193); experiment: pull-down
Chain of GST-RhoC (P08134 whole entry): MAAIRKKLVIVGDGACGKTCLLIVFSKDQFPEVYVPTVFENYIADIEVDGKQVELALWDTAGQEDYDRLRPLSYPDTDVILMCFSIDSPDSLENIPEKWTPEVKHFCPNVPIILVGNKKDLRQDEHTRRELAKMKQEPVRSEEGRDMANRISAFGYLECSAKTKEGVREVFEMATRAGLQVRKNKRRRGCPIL

Chain of Non-tagged RhoA bound to GTPγS (P61586 whole entry): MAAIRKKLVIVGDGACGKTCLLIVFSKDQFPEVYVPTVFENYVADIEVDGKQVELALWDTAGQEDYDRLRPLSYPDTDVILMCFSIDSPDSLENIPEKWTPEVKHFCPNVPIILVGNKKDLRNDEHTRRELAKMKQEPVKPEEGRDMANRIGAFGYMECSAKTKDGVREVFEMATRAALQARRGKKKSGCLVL
Chain of GST-RhoB (P62745 whole entry): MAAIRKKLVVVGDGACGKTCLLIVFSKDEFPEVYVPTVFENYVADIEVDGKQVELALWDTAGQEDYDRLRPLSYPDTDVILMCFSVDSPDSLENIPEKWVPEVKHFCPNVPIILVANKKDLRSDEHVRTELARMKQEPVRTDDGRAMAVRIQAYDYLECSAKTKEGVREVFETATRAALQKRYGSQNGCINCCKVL

B1: PH domain of human PDZRhoGEF (residues 927-1085) with C-terminal His6 (domain or fragment, UniProt O15085 927-1085, looked up)
chain: TENRHRLEGYQKRLDATALERASNPLAAEFKSLDLTTRKMIHEGPLTWRISKDKTLDLHVLLLEDLLVLLQKQDEKLLLKCHSKTAVGSSDSKQTFSPVLKLNAVLIRSVATDKRAFFIICTSKLGPPQIYELVALTSSDKNTWMELLEEAVRNATRHP
- Kd [1]: 1.2 µM

B2: PH domain of AKAP-Lbc (domain or fragment, UniProt Q12802 2192-2333, looked up)
chain: VASYEKKVRLNEIYTKTDSKSIMRMKSGQMFAKEDLKRKKLVRDGSVFLKNAAGRLKEVQAVLLTDILVFLQEKDQKYIFASLDQKSTVISLKKLIVREVAHEEKGLFLISMGMTDPEMVEVHASSKEERNSWIQIIQDTIN
- Kd [1]: 3.1 µM

B3: PH domain of p114RhoGEF (domain or fragment, UniProt Q6P9R4 723-825, looked up)
chain: QLHLEGALCWKSTSGRLKDVLAVLLTDVLLLLQEKDQKYVFASVDSKPPVISLQKLIVREVANEEKAMFLISASMQGPEMYEMYTSSKEDRNIWMAHIRRAVE
- Kd [1]: 13 µM

Binder: B4
- Kd [2]: ~20 µM

B5: Non-tagged mutant (E40D/V43S/A56G) RhoA bound to GTPγS (natural protein)
chain: not shown
- fold reduction in affinity against wild-type RhoA [3]: 2 fold

B6: PH domain of human p190RhoGEF (residues 1049-1194) with C-terminal His6 (domain or fragment, UniProt Q8N1W1 1049-1194, looked up)
chain: EKNQKWLEILNKIENKTYTKLKNGHVFRKQALMSEERTLLYDGLVYWKTATGRFKDILALLLTDVLLFLQEKDQKYIFAAVDQKPSVISLQKLIAREVANEERGMFLISASSAGPEMYEIHTNSKEERNNWMRRIQQAVESCPEEK
- Kd [1]: ~2 µM
- binding result [4]: binds
- binding result [5]: binds
- binding result [6]: binds
- binding result [7]: binds
